From US9605283B2, “Microorganism modified for the production of 1,3-propanediol” (INSTITUT NATIONAL DES SCIENCES APPLIQUÉES, priority 2012, dated 2017)

How the values were obtained:
Type in all cases: biochemical
[1] = PDO dehydrogenase activity (PDO-dependent reduction of NADP); settings: 100 mM 1,3-propanediol, 10 mM NADP, 37° C., pH 8
Method: PDO dehydrogenase activity was assayed by following the PDO-dependent reduction of NADP. 1,3-propanediol+NADP^+→3-hydroxypropional+NADPH Reaction scheme:
Reactions were started by adding 100 mM 1,3-propanediol (PDO, Sigma).

[2] = OHB decarboxylase activity (coupled to YqhD, NADPH); settings: for Effect of mutation on activity and/or specificity for OHB (in words): versus wild-type enzyme
Method: (§1) OHB decarboxylase activity was assayed by coupling the decarboxylase activity to the NADPH-dependent reduction of the released 3-hydroxypropanal by purified aldehyde reductase, YqhD, from E. coli. The decarboxylation of pyruvate was coupled to the NADH-dependent reduction of acetaldehyde catalysed by yeast alcohol dehydrogenase. Branched-chain alpha-ketoacid decarboxylase activity was measured on 4-methyl-2-oxovaleric acid by coupling to the NADH-dependent reduction of 3-methylbutanal catalysed by horse liver alcohol dehydrogenase. […] Reactions were started by adding 20 mM 2-oxo-4-hydroxybutyrate (OHB), 10 mM 4-methyl-2-oxovaleric acid (MOV), or 5 mM pyruvate.

[3] = Branched-chain alpha-ketoacid decarboxylase activity (coupled to horse liver alcohol dehydrogenase)
Method: as §1

[4] = activity measured at 20 mM OHB, Table 10
[5] = activity measured at 10 mM MOV (KdcA mutants), Table 10

| Molecule | PDO dehydrogenase activity [1] [µmol/min/mg] | Max. specific activity, OHB ([2]; when not saturated, activity estimated at 20 mM substrate, Table 8) [µmol/mg/min] | OHB decarboxylase activity (in words) ([2]; wild-type enzymes) | Max. specific activity, Natural substrate ([3]; natural substrate 4-methyl-2-oxovaleric, Table 8) [µmol/mg/min] | Max. specific activity, OHB [2, 4] [µmol/mg/min] | Effect of mutation on activity and/or specificity for OHB (in words) [2] | Max. specific activity, Natural substrate [3, 5] [µmol/mg/min] |
| --- | --- | --- | --- | --- | --- | --- | --- |
| Ec-YqhD: alcohol dehydrogenase yqhD from Escherichia coli, used as PDO dehydrogenase (protein, UniProt Q46856 1-387, looked up) NADPH-dependent aldehyde …: MNNFNLHTPTRILFGKGAIAGLREQIPHDARVLITYGGGSVKKTGVLDQVLDALKGMDVLEFGGIEPNPAYETLMNAVKLVREQKVTFLLAVGGGSVLDGTKFIAAAANYPENIDPWHILQTGGKEIKSAIPMGCVLTLPATGSESNAGAVISRKTTGDKQAFHSAHVQPVFAVLDPVYTYTLPPRQVANGVVDAFVHTVEQYVTKPVDAKIQDRFAEGILLTLIEDGPKALKEPENYDVRANVMWAATQALNGLIGAGVPQDWATHMLGHELTAMHGLDHAQTLAIVLPALWNEKRDTKRAKLLQYAERVWNITEGSDDERIDAAIAATRNFFEQLGVPTHLSDYGLDGSSIPALLKKLEEHGMTQLGENHDITLDVSRRIYEAAR | 0.15 |  |  |  |  |  |  |
| Ll-KdcA: branched-chain alpha-ketoacid decarboxylase from L. lactis, SEQ ID No. 130 (protein, listed as Lactococcus lactis) MYTVGDYLLDRLHELGIEEIFGVPGDYNLQFLDQIISREDMKWIGNANELNASYMADGYARTKKAAAFLTTFGVGELSAINGLAGSYAENLPVVEIVGSPTSKVQNDGKFVHHTLADGDFKHFMKMHEPVTAARTLLTAENATYEIDRVLSQLLKERKPVYINLPVDVAAAKAEKPALSLEKESSTTNTTEQVILSKIEESLKNAQKPVVIAGHEVISFGLEKTVTQFVSETKLPITTLNFGKSAVDESLPSFLGIYNGKLSEISLKNFVESADFILMLGVKLTDSSTGAFTHHLDENKMISLNIDEGIIFNKVVEDFDFRAVVSSLSELKGIEYEGQYIDKQYEEFIPSSAPLSQDRLWQAVESLTQSNETIVAEQGTSFFGASTIFLKSNSRFIGQPLWGSIGYTFPAALGSQIADKESRHLLFIGDGSLQLTVQELGLSIREKLNPICFIINNDGYTVEREIHGPTQSYNDIPMWNYSKLPETFGATEDRVVSKIVRTENEFVSVMKEAQADVNRMYWIELVLEKEDAPKLLKKMGKLFAEQNK |  | 0.08 | significant OHB decarboxylase activity | 4 |  |  |  |
| Ll-KdcA V461I: L. lactis KdcA mutant V461I, SEQ ID No. 198 (protein, listed as Lactococcus lactis) MYTVGDYLLDRLHELGIEEIFGVPGDYNLQFLDQIISREDMKWIGNANELNASYMADGYARTKKAAAFLTTFGVGELSAINGLAGSYAENLPVVEIVGSPTSKVQNDGKFVHHTLADGDFKHFMKMHEPVTAARTLLTAENATYEIDRVLSQLLKERKPVYINLPVDVAAAKAEKPALSLEKESSTTNTTEQVILSKIEESLKNAQKPVVIAGHEVISFGLEKTVTQFVSETKLPITTLNFGKSAVDESLPSFLGIYNGKLSEISLKNFVESADFILMLGVKLTDSSTGAFTHHLDENKMISLNIDEGIIFNKVVEDFDFRAVVSSLSELKGIEYEGQYIDKQYEEFIPSSAPLSQDRLWQAVESLTQSNETIVAEQGTSFFGASTIFLKSNSRFIGQPLWGSIGYTFPAALGSQIADKESRHLLFIGDGSLQLTVQELGLSIREKLNPICFIINNDGYTIEREIHGPTQSYNDIPMWNYSKLPETFGATEDRVVSKIVRTENEFVSVMKEAQADVNRMYWIELVLEKEDAPKLLKKMGKLFAEQNK |  |  |  |  | 0.24 | increased activity and/or specificity for OHB | 2.76 |
| Ll-KdcA G402S: L. lactis KdcA mutant G402S, SEQ ID No. 196 (protein, listed as Lactococcus lactis) MYTVGDYLLDRLHELGIEEIFGVPGDYNLQFLDQIISREDMKWIGNANELNASYMADGYARTKKAAAFLTTFGVGELSAINGLAGSYAENLPVVEIVGSPTSKVQNDGKFVHHTLADGDFKHFMKMHEPVTAARTLLTAENATYEIDRVLSQLLKERKPVYINLPVDVAAAKAEKPALSLEKESSTTNTTEQVILSKIEESLKNAQKPVVIAGHEVISFGLEKTVTQFVSETKLPITTLNFGKSAVDESLPSFLGIYNGKLSEISLKNFVESADFILMLGVKLTDSSTGAFTHHLDENKMISLNIDEGIIFNKVVEDFDFRAVVSSLSELKGIEYEGQYIDKQYEEFIPSSAPLSQDRLWQAVESLTQSNETIVAEQGTSFFGASTIFLKSNSRFIGQPLWSSIGYTFPAALGSQIADKESRHLLFIGDGSLQLTVQELGLSIREKLNPICFIINNDGYTVEREIHGPTQSYNDIPMWNYSKLPETFGATEDRVVSKIVRTENEFVSVMKEAQADVNRMYWIELVLEKEDAPKLLKKMGKLFAEQNK |  |  |  |  | 0.09 | increased activity and/or specificity for OHB | 3.1 |
